Results reported in patent US20260071233A1.

Biological target: Recombinant rat IFN-γ (rat) (UniProt P01581)
UniProt P01581, sequence (P01581 23-156 limits assumed): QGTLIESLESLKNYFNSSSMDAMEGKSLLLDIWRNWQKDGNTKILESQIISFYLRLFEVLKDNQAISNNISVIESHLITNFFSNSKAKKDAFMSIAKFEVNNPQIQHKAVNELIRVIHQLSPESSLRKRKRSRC

Recombinant B8R protein
percent neutralization: > 50%
